Reference: patent publication US20240239894A1, “THERAPEUTIC BINDING MOLECULES” (MedImmune Limited, priority 2020, published 2024)

T1: human B7-H4 antigen (Homo sapiens, UniProt Q7Z7D3)
T1 sequence (Q7Z7D3 25-282): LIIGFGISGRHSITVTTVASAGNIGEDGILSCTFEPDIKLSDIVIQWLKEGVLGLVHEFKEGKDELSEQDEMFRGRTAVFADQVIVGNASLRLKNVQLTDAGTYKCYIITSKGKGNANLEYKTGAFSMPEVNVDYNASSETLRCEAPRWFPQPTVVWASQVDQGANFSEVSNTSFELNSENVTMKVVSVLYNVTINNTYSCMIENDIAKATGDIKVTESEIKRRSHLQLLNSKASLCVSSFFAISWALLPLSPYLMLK

B1: E02-GL-SG3249: clone E02-GL (Maia heavy chain backbone) conjugated to the PBD cytotoxin SG3249 (conjugate)
heavy: QVQLQQWGAGLLKPSETLSLACTVYGGSFSGYYWNWIRQPPGKGLEWIGEINHSGSTSYNPSLKSRVTISVDTSKNQFSLKLSSVTAADTAVYYCARVLYNWNVDSWGQGTLVTVSSASTKGPSVFPLAPSSKSTSGGTAALGCLVKDYFPEPVTVSWNSGALTSGVHTFPAVLQSSGLYSLSSVVTVPSSSLGTQTYICNVNHKPSNTKVDKRVEPKSCDKTHTCPPCPAPELLGGPSCVFLFPPKPKDTLMISRTPEVTCVVVDVSHEDPEVKFNWYVDGVEVHNAKTKPREEQYNSTYRVVSVLTVLHQDWLNGKEYKCKVSNKALPAPIEKTISKAKGQPREPQVYTLPPSREEMTKNQVSLTCLVKGFYPSDIAVEWESNGQPENNYKTTPPVLDSDGSFFLYSKLTVDKSRWQQGNVFSCSVMHEALHNHYTQKSLSLSPGK
light: DIQMTQSPSSLSASVGDRVTITCRASQDIRNDVGWYQQKPGKAPKRLIYAASRLQSGVPSRFSGSGSGTEFTLTISSLQPEDFATYYCLQHNSYPRTFGQGTKVEIKRTVAAPSVFIFPPSDEQLKSGTASVVCLLNNFYPREAKVQWKVDNALQSGNSQESVTEQDSKDSTYSLSSTLTLSKADYEKHKVYACEVTHQGLSSPVTKSFNRGEC
B2: E02-GL: germlined ZY0EQD-E02, VH SEQ ID NO: 45, VL SEQ ID NO: 34; antibody intermediate of E02-GL-SG3932 (antibody, V domains shown)
VH: QVQLQQWGAGLLKPSETLSLACTVYGGSFSGYYWNWIRQPPGKGLEWIGEINHSGSTSYNPSLKSRVTISVDTSKNQFSLKLSSVTAADTAVYYCARVLYNWNVDSWGQGTLVTVSS
VL: DIQMTQSPSSLSASVGDRVTITCRASQDIRNDVGWYQQKPGKAPKRLIYAASRLQSGVPSRFSGSGSGTEFTLTISSLQPEDFATYYCLQHNSYPRTFGQGTKVEIK

Tests used:
Toxicology study = assay type: in vivo; conditions: male cynomolgus monkeys, N=2/dose level
Description: E02-GL-SG3249 was administered to male cynomolgus monkeys (N═2/dose level). The “E02-GL” antibody has the CDR/VH sequences (e.g. corresponds to) of ZY0EQD-E02 (“GL” means the antibody has been germlined).

SKBR-3 cells = assay: Caspase 3/7 activity (IncuCyte); assay type: cell-based, human
Description: SKBR-3 cells were treated with E02-GL-SG3249, SG3199 and Olaparib (control) and monitored for caspase 3/7 activity (e.g. apoptosis) by IncuCyte.

[1] = test system: HT29 cell line expressing human B7-H4, SKBR3, HCC1569; assay: Cytotoxicity assay versus 1D11 ADC; assay type: cell-based; conditions: six days
Description: Cell lines were detached from tissue culture flasks by accutase (Gibco, Paisley, UK), pelleted by centrifugation, and resuspended in growth media (McCoy's 5A,10% FBS, 400 μg/mL G418 for HT29-hB7H4 clone 44, McCoy's 5A, 10% FBS for SKBR3 and RPMI-1640, 10% FBS for HCC1569). Viable cells were counted by trypan blue exclusion using a haemocytometer. Cell densities were adjusted to 2.7×10^4 cells/mL in growth media. 75 μL/well of the cell suspension (2×10^3 cells) was added to 96-well white walled clear bottom tissue culture treated plates and cultured overnight in a humidified tissue culture incubator at 37° C. in 5% CO2. […]
Cells were cultured in the presence of ADCs or DPBS (mock-treated control cells) for six days. Cell viability was assessed using CellTiter-Glo® assay: 100 μL of CellTiter-Glo® (Promega, Southampton, UK) was added to each well. […] Luminescence was measured using an Envision multilabel plate reader (Perkin Elmer, Seer Green, UK). The potency for test article antibodies (e.g. 1D11-MMAE or E02-GL-MMAE or E02-GL-SG3249) was determined by generating half-maximal inhibitory concentration (IC50) values using a nonlinear regression model [log agonist vs. response—variable slope (three parameters)] in GraphPad Prism, version 7 (GraphPad Software, La Jolla, CA) and presented as percent cell viability relative to Mock-treated control cells — […]

[2] = test system: HT29 WT (not expressing B7-H4); assay: Bystander killing in vitro (conditioned medium); assay type: cell-based, human; conditions: donor cells treated 4 days
Description: HT29 B7-H4 expressing cells were treated with E02-GL-SG3249 for 4 days, after which the conditioned medium was removed and added to HT29 WT (i.e. not expressing B7-H4).

human B7-H4 antigen = target: T1, human B7-H4 antigen; assay: SPR, antibody capture method; assay type: binding
Description: To assess whether conjugation of the topoisomerase 1 linker-warhead affected binding properties of the E02-INT antibody, the binding affinity of E02-INT and E02-GL-SG3932 were measured using a DELFIA-ELISA method and an SPR method. […] The kinetic rate constants (kon and koff) and equilibrium dissociation constants (KD) of E02-INT and E02-GL-SG3932 for human B7-H4 antigen was also determined by SPR, using an antibody capture method.

HEK 293 JI hB7H4 pool = assay: E02-GL MESF on cell line; assay type: cell-based; conditions: has some negative cells in pool
[3] = test system: B7-H4 expressing versus WT HT29, CT26 and 4T1 tumours; assay: In vivo imaging of 800CW labelled antibody; design: species or system mice; conditions: 800CW label; HT29 days 3, 7, 14; CT26 days 3 and 7; 4T1 day 7
Excerpt: Antibody clones (e.g. E02_GL) were labelled with 800CW (LI-COR Biosciences). 800 CW labelled R347 was used in control experiments.
B7-H4 expressing CT26/4TI/HT29 cancer cells were grafted (e.g. inoculated subcutaneously) to the left flank […] nude mice (Charles River Laboratories, Wilmington, MA), and non-B7-H4 expressing CT26/4TI/HT29 cancer cells were grafted to the right flank to provide an internal control. Mice were kept for a week to develop tumours, 800CW-labelled E02_GL was injected. 800CW-labelled R347 was injected into control mice. […]
In vivo imaging studies were performed as outlined under Materials and Methods (above), namely with 800CW labelled antibody (E02_GL). “E02-GL” antibody has the CDR/VH sequences (e.g. corresponds to) of ZY0EQD-E02 (“GL” means the antibody has been germlined).

[4] = test system: live cells (B7-H4 on membrane); assay: Internalisation kinetics in live cells (AF647 label); assay type: cell-based; conditions: AF647 conjugate; co-visualisation with Lamp1-AF488
Description: E02-GL conjugated to fluorescence marker AF647 was used to treat live cells. At 0 mins following treatment, clusters of fluorescence were noted on the cell membranes (indicative of binding to B7-H4 present on the membrane).

HEK293 JI parental = assay: E02-GL MESF on cell line; assay type: cell-based; conditions: B7-H4 negative
HT29 hB7H4 clone 4 = assay: E02-GL MESF on cell line; assay type: cell-based, human
SKBR3 = assay: E02-GL MESF on cell line; assay type: cell-based, human

Molecule	toxicities (Toxicology study)	caspase 3/7 activity (SKBR-3 cells)	cytotoxicity potency compared with 1D11 conjugated to (A114C-) MMAE [1]	viability of HT29 WT after conditioned medium from treated HT29 B7-H4 expressing cells [2]	Ka (human B7-H4 antigen) [M⁻¹ s⁻¹]	Kd (human B7-H4 antigen) [nM]	Kd (s^−1) (human B7-H4 antigen) [s⁻¹]	Rmax (RU) (human B7-H4 antigen)	E02-GL MESF (HEK 293 JI hB7H4 pool)	localization to the B7-H4 expressing tumour compared to the WT tumour [3]	internalisation of bound antibody [4]	E02-GL MESF (HEK293 JI parental)	E02-GL MESF (HT29 hB7H4 clone 4)	E02-GL MESF (SKBR3)
B1	No abnormal toxicities	dose dependent increase	superior cytotoxicity potency	rapid decrease in cell viability										
B2					93800	31.1	0.00292	56.8	2,481,266 MESF	Preferential localization	internalised by endocytosis	3,266 MESF	71,928 MESF	78,343 MESF
